Experimental data as given in patent US20170189505A1.

Each binder was assayed against HLA-A*24 (human) (assay: UV peptide exchange, anti-b2m ELISA).

How did the peptide exchange yield turn out when FYSRLLQKF [SEQ ID No 203 peptide …] was run?
The peptide exchange yield was 50 to 75%.

How did the peptide exchange yield turn out when IYQLDTASI [SEQ ID No 182 peptide …] was run?
Its peptide exchange yield is 50 to 75%.

For VHIPEVYLI [SEQ ID No 205 peptide …], which peptide exchange yield is on record?
Its peptide exchange yield is 50 to 75%.

GFFIFNERF [SEQ ID No 190 peptide …] was tested. Which peptide exchange yield did it give?
Its peptide exchange yield is 50 to 75%.

Which peptide exchange yield does the source give for VFTSTARAF [SEQ ID No 183 peptide …] here?
Its peptide exchange yield is 50 to 75%.

IFPQFLYQF [SEQ ID No 186 peptide …] was tested. Which peptide exchange yield did it give?
The peptide exchange yield was over 75%.

How did the peptide exchange yield turn out when VFQNFPLLF [SEQ ID No 184 peptide …] was run?
Its peptide exchange yield is over 75%.

Which peptide exchange yield does the source give for IYTMIYRNL [SEQ ID No 210 peptide …] here?
The peptide exchange yield was over 75%.

How did the peptide exchange yield turn out when VFKASKITF [SEQ ID No 191 peptide …] was run?
Its peptide exchange yield is 50 to 75%.

With MYDSYWRQF [SEQ ID No 179 peptide …] as the binder, how does the peptide exchange yield read?
The peptide exchange yield was over 75%.

EFGSLHLEFL [SEQ ID No 194 peptide …] was tested. Which peptide exchange yield did it give?
The peptide exchange yield was under 20%.

Which peptide exchange yield does the source give for RYFKGLVF [SEQ ID No 188 peptide RYFKGLVF] here?
Its peptide exchange yield is 50 to 75%.

With WYVNGVNYF [SEQ ID No 189 peptide …] as the binder, how does the peptide exchange yield read?
Its peptide exchange yield is 20 to 49%.

How did the peptide exchange yield turn out when LYLDKATLI [SEQ ID No 198 peptide …] was run?
The peptide exchange yield was 50 to 75%.

Which peptide exchange yield does the source give for TYTTVPRVAF [SEQ ID No 172 peptide …] here?
The peptide exchange yield was over 75%.

IYKVGAPTI [SEQ ID No 185 peptide …] was tested. Which peptide exchange yield did it give?
The peptide exchange yield was 50 to 75%.

With QYSSVFKSL [SEQ ID No 216 peptide …] as the binder, how does the peptide exchange yield read?
The peptide exchange yield was over 75%.

EYQENFLSF [SEQ ID No 206 peptide …] was tested. Which peptide exchange yield did it give?
Its peptide exchange yield is 50 to 75%.

Which peptide exchange yield does the source give for SYALLTYMI [SEQ ID No 192 peptide …] here?
Its peptide exchange yield is over 75%.

LYLKLWNLI [SEQ ID No 214 peptide …] was tested. Which peptide exchange yield did it give?
Its peptide exchange yield is 50 to 75%.

How did the peptide exchange yield turn out when VYPWLGALL [SEQ ID No 177 peptide …] was run?
Its peptide exchange yield is over 75%.

Which peptide exchange yield does the source give for IFIEVFSHF [SEQ ID No 178 peptide …] here?
Its peptide exchange yield is 50 to 75%.

For LYLDIINLF [SEQ ID No 181 peptide …], which peptide exchange yield is on record?
The peptide exchange yield was over 75%.

How did the peptide exchange yield turn out when TYLRDQHFL [SEQ ID No 187 peptide …] was run?
The peptide exchange yield was over 75%.

With IYDDSFIRPVTF [SEQ ID No 180 peptide …] as the binder, how does the peptide exchange yield read?
Its peptide exchange yield is 50 to 75%.

YYLEVGKTLI [SEQ ID No 211 peptide …] was tested. Which peptide exchange yield did it give?
The peptide exchange yield was over 75%.

With FFPPTRQMGLLF [SEQ ID No 217 peptide …] as the binder, how does the peptide exchange yield read?
Its peptide exchange yield is over 75%.

Which peptide exchange yield does the source give for YFDKVVTL [SEQ ID No 215 peptide YFDKVVTL] here?
Its peptide exchange yield is 20 to 49%.

RFHPTPLLL [SEQ ID No 193 peptide …] was tested. Which peptide exchange yield did it give?
The peptide exchange yield was over 75%.

How did the peptide exchange yield turn out when TYTQDFNKF [SEQ ID No 208 peptide …] was run?
The peptide exchange yield was 50 to 75%.
